Laboratory results: the supplement of paper PMC7877785
± gives the uncertainty stated by the source.

Assay: self-splicing fitness, log relative to wild type (ln ratio); higher = more splicing; Tetrahymena group I intron in knt gene, E. coli kanamycin selection, DiMSum; sequences stand for … in CUCUCU…GGAGGGAAAAGUUAUCAGGCAUGCACCUGGUAGCUAGUCUUUAAACCAAUAGAUUGCAUCGGUUUAAAAGGCAAGACCGUCAAAUUGCGGGAAAGGGGUCAACAGCCGUUCAGUACCAAGUCUCAGGGGAAACUUUGAGAUGGCCUUGCAAAGGGUAUGGUAAUAAGCUGACGGACAUGGUCCUAACCACGCAGCCAAGUCCUAAGUCAACAGAUCUUCUGUUGAUAUGGAUGCAGUUCACAGACUAAAUGUCGGUCGGGGAAGAUGUAUUCUUCUCAUAAGAUAUAGUCGGACCUCUCCUUAAUGGGAGCUAGCGGAUGAAGUGAUGCAACACUGGAGCCGCUGGGAACUAAUUUGUAUGCGAAAGUAUAUUGAUUAGUUUUGGAGUACUCGUGGUCG
How it was run: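 Pooled colonies went to amplicon sequencing on an Illumina HiSeq 2500 after six replicate transformations. The plates were LB agar with 100 μg/mL carbenicillin, 50 μM IPTG and 0.2% rhamnose, with or without 25 μg/mL kanamycin, incubated overnight at 37°C or 30°C. The E. coli BL21(DE3) library had all eight P1ex-region intron nucleotides randomised, the intron placed in the knt kanamycin-resistance gene on pET-22b(+). DiMSum fitness is the error-weighted combination of replicate fold changes, kanamycin against none, normalised to wild type.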

Row | Sequence | self-splicing fitness (ln) (30 °C) | self-splicing fitness (ln) (37 °C)
1 | GCUCAGCAAUAUUACGCGGC | -3.83 ± 0.47 | -1.46 ± 0.26
2 | UUAAAGCAAUAUUACGCCUC | -2.29 ± 0.19 | -1.43 ± 0.24
3 | UUGAAGCAAUAUUACGUGCA | -0.222 ± 0.068 | 0.447 ± 0.1
4 | CAUGAGCAAUAUUACGGGAU | -3.49 ± 0.3 | 
5 | AACGAGCAAUAUUACGCGUG | -1.89 ± 0.094 | -1.12 ± 0.099
6 | GCCAAGCAAUAUUACGAAGU | -1.12 ± 0.049 | -0.235 ± 0.064
7 | GAUAAGCAAUAUUACGACUA | -0.184 ± 0.086 | -0.149 ± 0.1
8 | UAACAGCAAUAUUACGGGUA | -0.895 ± 0.061 | 0.0689 ± 0.074
9 | AUUGAGCAAUAUUACGGUUA | -3.06 ± 0.29 | -2.57 ± 0.22
10 | UAAGAGCAAUAUUACGCCGA | -2.94 ± 0.47 | 
11 | AUGAAGCAAUAUUACGUGGA | -2.73 ± 0.096 | -1.45 ± 0.11
12 | GCGAAGCAAUAUUACGAACA | -1.49 ± 0.34 | -1.16 ± 0.29
13 | UGUGAGCAAUAUUACGGAGG | -3.33 ± 0.29 | -2.11 ± 0.34
14 | CCUAAGCAAUAUUACGCGCC | -2.47 ± 0.26 | -1.63 ± 0.33
15 | UGCAAGCAAUAUUACGGAUA | -1.68 ± 0.11 | -0.698 ± 0.12
16 | UCGCAGCAAUAUUACGCACC | -1.68 ± 0.27 | -1.6 ± 0.38
17 | AUAAAGCAAUAUUACGUGAC | -2.94 ± 0.19 | -1.57 ± 0.18
18 | AAAAAGCAAUAUUACGAUGU | -0.893 ± 0.064 | -0.0506 ± 0.079
19 | ACCAAGCAAUAUUACGUGGG | -3.46 ± 0.13 | -2.4 ± 0.11
20 | CAACAGCAAUAUUACGUGAU | -2.64 ± 0.075 | -2.19 ± 0.1
21 | UAGCAGCAAUAUUACGGGGC | -3.58 ± 0.21 | -3.17 ± 0.27
22 | GUUCAGCAAUAUUACGGGUG | -1.49 ± 0.09 | -0.763 ± 0.089
23 | CCUGAGCAAUAUUACGGUAA | -3.76 ± 0.37 | -3.55 ± 0.25
24 | AAACAGCAAUAUUACGGUUA | -0.306 ± 0.056 | -0.167 ± 0.066
25 | AGCGAGCAAUAUUACGCCCG |  | -0.109 ± 0.42

Row | Sequence | self-splicing fitness (ln) (30 °C) | self-splicing fitness (ln) (37 °C)
26 | CGGAAGCAAUAUUACGUACG | -3.87 ± 0.24 | -2.26 ± 0.21
27 | AACGAGCAAUAUUACGUUGA | -3.48 ± 0.21 | -3.32 ± 0.22
28 | GAAAAGCAAUAUUACGAACU | -0.519 ± 0.1 | 0.532 ± 0.13
29 | CUGAAGCAAUAUUACGAAAA | -4.17 ± 0.25 | -2.59 ± 0.22
30 | AGCCAGCAAUAUUACGAAUA | -3.25 ± 0.27 | -2.94 ± 0.3
31 | GGAUAGCAAUAUUACGAGGC | -3.93 ± 0.31 | -2.43 ± 0.37
32 | UCCUAGCAAUAUUACGUGUU | -3.7 ± 0.21 | -2.94 ± 0.19
33 | UUCCAGCAAUAUUACGUGAG | 0.114 ± 0.062 | 0.597 ± 0.08
34 | CGAUAGCAAUAUUACGACAC | -3.23 ± 0.49 | 
35 | AAGAAGCAAUAUUACGGAGU | -3.02 ± 0.15 | -2.86 ± 0.17
36 | UCCUAGCAAUAUUACGGGAC | -3.32 ± 0.22 | -2.73 ± 0.2
37 | UCGAAGCAAUAUUACGCAGA | -2.28 ± 0.2 | -2.85 ± 0.27
38 | GUGGAGCAAUAUUACGUUGU | -2.93 ± 0.12 | -2.53 ± 0.21
39 | UGUUAGCAAUAUUACGUUAG | -0.971 ± 0.12 | -1.26 ± 0.12
40 | AAGCAGCAAUAUUACGGUCG | -1.34 ± 0.061 | -0.879 ± 0.093
41 | CGCUAGCAAUAUUACGUCAG | -1.4 ± 0.12 | -0.542 ± 0.14
42 | AAGCAGCAAUAUUACGGGUA | -1.91 ± 0.15 | -2.31 ± 0.16
43 | AACCAGCAAUAUUACGAACU | -0.369 ± 0.079 | 0.35 ± 0.1
44 | GUGAAGCAAUAUUACGCGGU | -3.01 ± 0.28 | -0.0814 ± 0.17
45 | GGCGAGCAAUAUUACGUGCG | -1.65 ± 0.11 | -0.955 ± 0.1
46 | GAAUAGCAAUAUUACGUGAU | -3.48 ± 0.17 | -1.27 ± 0.11
47 | AUAGAGCAAUAUUACGUGGA | -3.98 ± 0.27 | -3.39 ± 0.29
48 | AAGAAGCAAUAUUACGACAC | -0.918 ± 0.12 | -0.625 ± 0.14
49 | AGGUAGCAAUAUUACGAUUU | 0.169 ± 0.014 | 0.0198 ± 0.033
